Experimental data: publication PMC6570770, “In situ structure and assembly of the multidrug efflux pump AcrAB-TolC” (Nature Communications, 2019)

Molecular target: the molecule itself
Assay: cryo-EM structure

B1: AcrA (periplasmic adaptor protein of the AcrAB-TolC multidrug efflux pump) (natural protein)
chain: CDDKQAQQGGQQMPAVGVVTVKTEPLQITTELPGRTSAYRIAEVRPQVSGIILKRNFKEGSDIEAGVSLYQIDPATYQATYDSAKGDLAKAQAAANIAQLTVNRYQKLLGTQYISKQEYDQALADAQQANAAVTAAKAAVETARINLAYTKVTSPISGRIGKSNVTEGALVQNGQATALATVQQLDPIYVDVTQSSNDFLRLKQELANGTLKQENGKAKVSLITSDGIKFPQDGTLEFSDVTVDQTTGSITLRAIFPNPDHTLLPGMFVRARLEEGLNPNAILVPQQGVTRTPRGDATVLVVGADDKVETRPIVASQAIGDKWLVTEGLKAGDRVVISGLQKVRPGVQVKAQEVTADNNQQAASGAQPEQSKS
notes: also called periplasmic adaptor protein AcrA; source: E. coli BL21 (DE3), overexpressed from plasmid pAcBH (acrAB locus), in intact cells
stoichiometry N: 6
